Values quoted from earlier work as cited in patent US7410776B2, “Polypeptides, their production and use” (Takeda Pharmaceutical Company Limited, priority 1997, dated 2008).

Molecular target: T1, APJ (Homo sapiens, UniProt P35414)
T1 construct: host or cells: CHO cells
T1 sequence (P35414 1-380): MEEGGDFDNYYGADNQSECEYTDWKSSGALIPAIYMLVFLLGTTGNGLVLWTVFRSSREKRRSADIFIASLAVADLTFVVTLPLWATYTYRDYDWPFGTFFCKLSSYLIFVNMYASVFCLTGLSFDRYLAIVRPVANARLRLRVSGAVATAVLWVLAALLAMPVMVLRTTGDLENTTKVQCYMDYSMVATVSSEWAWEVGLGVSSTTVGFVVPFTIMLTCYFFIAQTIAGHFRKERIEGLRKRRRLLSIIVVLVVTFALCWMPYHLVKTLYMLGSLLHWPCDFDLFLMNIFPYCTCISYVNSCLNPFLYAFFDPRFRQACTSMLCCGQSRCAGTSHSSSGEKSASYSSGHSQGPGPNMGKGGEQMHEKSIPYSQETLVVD
Conditions: APJ expressed in CHO cells

- reaction with APJ: no reaction was detected at all
Substance: angiotensin II (DRVYIHPF; Angiotensin-2; UniProt P01019 25-32, looked up) [known peptide tested on APJ expressed in CHO cells]
